# Test results taken from the supplement of paper PMC10266784.
# B1: library; numbered along this chain (parent)
# chain: MAAAAAAAAEQQSSNGPVKKSMREKAVERRSVNKEHNSNFKAGYIPIDEDRLHKTGLRGRKGNLAICVIILLFILAVINLIITLVIWAVIRIGPNGCDSMEFHESGLLRFKQVSDMGVIHPLYKSTVGGRRNENLVITGNNQPIVFQQGTTKLSVENNKTSITSDIGMQFFDPRTQNILFSTDYETHEFHLPSGVKSLNVQKASTERITSNATSDLNIKVDGRAIVRGNEGVFIMGKTIEFHMGGNMELKAENSIILNGSVMVSTTRLPSSSSGDQLGSGDWVRYKLCMCADGTLFKVQVTSQNMGCQISDNPCGNTH
# Variants of: B1
# Experiment: SGCB cell-surface expression functional score (HA stain, bin4 vs bin1, normalised to synonymous) (log10 ratio); higher = more cell-surface SGCB (functional)
# Method: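 Deep mutational scan of full-length human SGCB (YFP-SGCB-HA, NNN codon sublibraries A-F) delivered by lentivirus at low MOI into ADG-HEK293 cells stably expressing SGCA, SGCD and SGCG. YFP-positive cells were stained for surface HA on unpermeabilized cells and FACS-sorted into bins. The functional score is log10(frequency in high bin 4 / frequency in low bin 1), normalised per chunk so that synonymous variants have mean 0 and SD 0.5. Scores are the median over codons and over duplicate biological replicates; scores below -0.5 are called non-functional. Scale: negative means deleterious.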
row,Variant,SGCB cell-surface expression functional score (log10)
1,MAAAAAAAAEQQSSDGPVKKSMREKAVERRSVNKEHNSNFKAGYIPIDEDRLHKTGLRGRKGNLAICVIILLFILAVINLIITLVIWAVIRIGPNGCDSMEFHESGLLRFKQVSDMGVIHPLYKSTVGGRRNENLVITGNNQPIVFQQGTTKLSVENNKTSITSDIGMQFFDPRTQNILFSTDYETHEFHLPSGVKSLNVQKASTERITSNATSDLNIKVDGRAIVRGNEGVFIMGKTIEFHMGGNMELKAENSIILNGSVMVSTTRLPSSSSGDQLGSGDWVRYKLCMCADGTLFKVQVTSQNMGCQISDNPCGNTH [N15D],-0.15
2,MAAAAAAAAEQQSSEGPVKKSMREKAVERRSVNKEHNSNFKAGYIPIDEDRLHKTGLRGRKGNLAICVIILLFILAVINLIITLVIWAVIRIGPNGCDSMEFHESGLLRFKQVSDMGVIHPLYKSTVGGRRNENLVITGNNQPIVFQQGTTKLSVENNKTSITSDIGMQFFDPRTQNILFSTDYETHEFHLPSGVKSLNVQKASTERITSNATSDLNIKVDGRAIVRGNEGVFIMGKTIEFHMGGNMELKAENSIILNGSVMVSTTRLPSSSSGDQLGSGDWVRYKLCMCADGTLFKVQVTSQNMGCQISDNPCGNTH [N15E],0.33
3,MAAAAAAAAEQQSSAGPVKKSMREKAVERRSVNKEHNSNFKAGYIPIDEDRLHKTGLRGRKGNLAICVIILLFILAVINLIITLVIWAVIRIGPNGCDSMEFHESGLLRFKQVSDMGVIHPLYKSTVGGRRNENLVITGNNQPIVFQQGTTKLSVENNKTSITSDIGMQFFDPRTQNILFSTDYETHEFHLPSGVKSLNVQKASTERITSNATSDLNIKVDGRAIVRGNEGVFIMGKTIEFHMGGNMELKAENSIILNGSVMVSTTRLPSSSSGDQLGSGDWVRYKLCMCADGTLFKVQVTSQNMGCQISDNPCGNTH [N15A],0.45
4,MAAAAAAAAEQQSSGGPVKKSMREKAVERRSVNKEHNSNFKAGYIPIDEDRLHKTGLRGRKGNLAICVIILLFILAVINLIITLVIWAVIRIGPNGCDSMEFHESGLLRFKQVSDMGVIHPLYKSTVGGRRNENLVITGNNQPIVFQQGTTKLSVENNKTSITSDIGMQFFDPRTQNILFSTDYETHEFHLPSGVKSLNVQKASTERITSNATSDLNIKVDGRAIVRGNEGVFIMGKTIEFHMGGNMELKAENSIILNGSVMVSTTRLPSSSSGDQLGSGDWVRYKLCMCADGTLFKVQVTSQNMGCQISDNPCGNTH [N15G],0.04
5,MAAAAAAAAEQQSSFGPVKKSMREKAVERRSVNKEHNSNFKAGYIPIDEDRLHKTGLRGRKGNLAICVIILLFILAVINLIITLVIWAVIRIGPNGCDSMEFHESGLLRFKQVSDMGVIHPLYKSTVGGRRNENLVITGNNQPIVFQQGTTKLSVENNKTSITSDIGMQFFDPRTQNILFSTDYETHEFHLPSGVKSLNVQKASTERITSNATSDLNIKVDGRAIVRGNEGVFIMGKTIEFHMGGNMELKAENSIILNGSVMVSTTRLPSSSSGDQLGSGDWVRYKLCMCADGTLFKVQVTSQNMGCQISDNPCGNTH [N15F],0.28
6,MAAAAAAAAEQQSSCGPVKKSMREKAVERRSVNKEHNSNFKAGYIPIDEDRLHKTGLRGRKGNLAICVIILLFILAVINLIITLVIWAVIRIGPNGCDSMEFHESGLLRFKQVSDMGVIHPLYKSTVGGRRNENLVITGNNQPIVFQQGTTKLSVENNKTSITSDIGMQFFDPRTQNILFSTDYETHEFHLPSGVKSLNVQKASTERITSNATSDLNIKVDGRAIVRGNEGVFIMGKTIEFHMGGNMELKAENSIILNGSVMVSTTRLPSSSSGDQLGSGDWVRYKLCMCADGTLFKVQVTSQNMGCQISDNPCGNTH [N15C],0.19
7,MAAAAAAAAEQQSTNGPVKKSMREKAVERRSVNKEHNSNFKAGYIPIDEDRLHKTGLRGRKGNLAICVIILLFILAVINLIITLVIWAVIRIGPNGCDSMEFHESGLLRFKQVSDMGVIHPLYKSTVGGRRNENLVITGNNQPIVFQQGTTKLSVENNKTSITSDIGMQFFDPRTQNILFSTDYETHEFHLPSGVKSLNVQKASTERITSNATSDLNIKVDGRAIVRGNEGVFIMGKTIEFHMGGNMELKAENSIILNGSVMVSTTRLPSSSSGDQLGSGDWVRYKLCMCADGTLFKVQVTSQNMGCQISDNPCGNTH [S14T],-0.01
8,MAAAAAAAAEQQSNNGPVKKSMREKAVERRSVNKEHNSNFKAGYIPIDEDRLHKTGLRGRKGNLAICVIILLFILAVINLIITLVIWAVIRIGPNGCDSMEFHESGLLRFKQVSDMGVIHPLYKSTVGGRRNENLVITGNNQPIVFQQGTTKLSVENNKTSITSDIGMQFFDPRTQNILFSTDYETHEFHLPSGVKSLNVQKASTERITSNATSDLNIKVDGRAIVRGNEGVFIMGKTIEFHMGGNMELKAENSIILNGSVMVSTTRLPSSSSGDQLGSGDWVRYKLCMCADGTLFKVQVTSQNMGCQISDNPCGNTH [S14N],0.61
9,MAAAAAAAAEQQSQNGPVKKSMREKAVERRSVNKEHNSNFKAGYIPIDEDRLHKTGLRGRKGNLAICVIILLFILAVINLIITLVIWAVIRIGPNGCDSMEFHESGLLRFKQVSDMGVIHPLYKSTVGGRRNENLVITGNNQPIVFQQGTTKLSVENNKTSITSDIGMQFFDPRTQNILFSTDYETHEFHLPSGVKSLNVQKASTERITSNATSDLNIKVDGRAIVRGNEGVFIMGKTIEFHMGGNMELKAENSIILNGSVMVSTTRLPSSSSGDQLGSGDWVRYKLCMCADGTLFKVQVTSQNMGCQISDNPCGNTH [S14Q],0.46
10,MAAAAAAAAEQQSRNGPVKKSMREKAVERRSVNKEHNSNFKAGYIPIDEDRLHKTGLRGRKGNLAICVIILLFILAVINLIITLVIWAVIRIGPNGCDSMEFHESGLLRFKQVSDMGVIHPLYKSTVGGRRNENLVITGNNQPIVFQQGTTKLSVENNKTSITSDIGMQFFDPRTQNILFSTDYETHEFHLPSGVKSLNVQKASTERITSNATSDLNIKVDGRAIVRGNEGVFIMGKTIEFHMGGNMELKAENSIILNGSVMVSTTRLPSSSSGDQLGSGDWVRYKLCMCADGTLFKVQVTSQNMGCQISDNPCGNTH [S14R],0.04
11,MAAAAAAAAEQQSHNGPVKKSMREKAVERRSVNKEHNSNFKAGYIPIDEDRLHKTGLRGRKGNLAICVIILLFILAVINLIITLVIWAVIRIGPNGCDSMEFHESGLLRFKQVSDMGVIHPLYKSTVGGRRNENLVITGNNQPIVFQQGTTKLSVENNKTSITSDIGMQFFDPRTQNILFSTDYETHEFHLPSGVKSLNVQKASTERITSNATSDLNIKVDGRAIVRGNEGVFIMGKTIEFHMGGNMELKAENSIILNGSVMVSTTRLPSSSSGDQLGSGDWVRYKLCMCADGTLFKVQVTSQNMGCQISDNPCGNTH [S14H],0.09
12,MAAAAAAAAEQQSINGPVKKSMREKAVERRSVNKEHNSNFKAGYIPIDEDRLHKTGLRGRKGNLAICVIILLFILAVINLIITLVIWAVIRIGPNGCDSMEFHESGLLRFKQVSDMGVIHPLYKSTVGGRRNENLVITGNNQPIVFQQGTTKLSVENNKTSITSDIGMQFFDPRTQNILFSTDYETHEFHLPSGVKSLNVQKASTERITSNATSDLNIKVDGRAIVRGNEGVFIMGKTIEFHMGGNMELKAENSIILNGSVMVSTTRLPSSSSGDQLGSGDWVRYKLCMCADGTLFKVQVTSQNMGCQISDNPCGNTH [S14I],0.03
13,MAAAAAAAAEQQSYNGPVKKSMREKAVERRSVNKEHNSNFKAGYIPIDEDRLHKTGLRGRKGNLAICVIILLFILAVINLIITLVIWAVIRIGPNGCDSMEFHESGLLRFKQVSDMGVIHPLYKSTVGGRRNENLVITGNNQPIVFQQGTTKLSVENNKTSITSDIGMQFFDPRTQNILFSTDYETHEFHLPSGVKSLNVQKASTERITSNATSDLNIKVDGRAIVRGNEGVFIMGKTIEFHMGGNMELKAENSIILNGSVMVSTTRLPSSSSGDQLGSGDWVRYKLCMCADGTLFKVQVTSQNMGCQISDNPCGNTH [S14Y],-0.15
14,MAAAAAAAAEQQSMNGPVKKSMREKAVERRSVNKEHNSNFKAGYIPIDEDRLHKTGLRGRKGNLAICVIILLFILAVINLIITLVIWAVIRIGPNGCDSMEFHESGLLRFKQVSDMGVIHPLYKSTVGGRRNENLVITGNNQPIVFQQGTTKLSVENNKTSITSDIGMQFFDPRTQNILFSTDYETHEFHLPSGVKSLNVQKASTERITSNATSDLNIKVDGRAIVRGNEGVFIMGKTIEFHMGGNMELKAENSIILNGSVMVSTTRLPSSSSGDQLGSGDWVRYKLCMCADGTLFKVQVTSQNMGCQISDNPCGNTH [S14M],0.08
15,MAAAAAAAAEQQSLNGPVKKSMREKAVERRSVNKEHNSNFKAGYIPIDEDRLHKTGLRGRKGNLAICVIILLFILAVINLIITLVIWAVIRIGPNGCDSMEFHESGLLRFKQVSDMGVIHPLYKSTVGGRRNENLVITGNNQPIVFQQGTTKLSVENNKTSITSDIGMQFFDPRTQNILFSTDYETHEFHLPSGVKSLNVQKASTERITSNATSDLNIKVDGRAIVRGNEGVFIMGKTIEFHMGGNMELKAENSIILNGSVMVSTTRLPSSSSGDQLGSGDWVRYKLCMCADGTLFKVQVTSQNMGCQISDNPCGNTH [S14L],0.1
16,MAAAAAAAAEQQSKNGPVKKSMREKAVERRSVNKEHNSNFKAGYIPIDEDRLHKTGLRGRKGNLAICVIILLFILAVINLIITLVIWAVIRIGPNGCDSMEFHESGLLRFKQVSDMGVIHPLYKSTVGGRRNENLVITGNNQPIVFQQGTTKLSVENNKTSITSDIGMQFFDPRTQNILFSTDYETHEFHLPSGVKSLNVQKASTERITSNATSDLNIKVDGRAIVRGNEGVFIMGKTIEFHMGGNMELKAENSIILNGSVMVSTTRLPSSSSGDQLGSGDWVRYKLCMCADGTLFKVQVTSQNMGCQISDNPCGNTH [S14K],0.31
17,MAAAAAAAAEQQSWNGPVKKSMREKAVERRSVNKEHNSNFKAGYIPIDEDRLHKTGLRGRKGNLAICVIILLFILAVINLIITLVIWAVIRIGPNGCDSMEFHESGLLRFKQVSDMGVIHPLYKSTVGGRRNENLVITGNNQPIVFQQGTTKLSVENNKTSITSDIGMQFFDPRTQNILFSTDYETHEFHLPSGVKSLNVQKASTERITSNATSDLNIKVDGRAIVRGNEGVFIMGKTIEFHMGGNMELKAENSIILNGSVMVSTTRLPSSSSGDQLGSGDWVRYKLCMCADGTLFKVQVTSQNMGCQISDNPCGNTH [S14W],-0.06
18,MAAAAAAAAEQQSVNGPVKKSMREKAVERRSVNKEHNSNFKAGYIPIDEDRLHKTGLRGRKGNLAICVIILLFILAVINLIITLVIWAVIRIGPNGCDSMEFHESGLLRFKQVSDMGVIHPLYKSTVGGRRNENLVITGNNQPIVFQQGTTKLSVENNKTSITSDIGMQFFDPRTQNILFSTDYETHEFHLPSGVKSLNVQKASTERITSNATSDLNIKVDGRAIVRGNEGVFIMGKTIEFHMGGNMELKAENSIILNGSVMVSTTRLPSSSSGDQLGSGDWVRYKLCMCADGTLFKVQVTSQNMGCQISDNPCGNTH [S14V],0.21
19,MAAAAAAAAEQQSPNGPVKKSMREKAVERRSVNKEHNSNFKAGYIPIDEDRLHKTGLRGRKGNLAICVIILLFILAVINLIITLVIWAVIRIGPNGCDSMEFHESGLLRFKQVSDMGVIHPLYKSTVGGRRNENLVITGNNQPIVFQQGTTKLSVENNKTSITSDIGMQFFDPRTQNILFSTDYETHEFHLPSGVKSLNVQKASTERITSNATSDLNIKVDGRAIVRGNEGVFIMGKTIEFHMGGNMELKAENSIILNGSVMVSTTRLPSSSSGDQLGSGDWVRYKLCMCADGTLFKVQVTSQNMGCQISDNPCGNTH [S14P],0.22
